This data set in a line: self-splicing fitness, log relative to wild type (ln ratio); higher = more splicing; Tetrahymena group I intron in knt gene, E. coli kanamycin selection, DiMSum; sequences stand for … in CUCUCU…GGAGGGAAAAGUUAUCAGGCAUGCACCUGGUAGCUAGUCUUUAAACCAAUAGAUUGCAUCGGUUUAAAAGGCAAGACCGUCAAAUUGCGGGAAAGGGGUCAACAGCCGUUCAGUACCAAGUCUCAGGGGAAACUUUGAGAUGGCCUUGCAAAGGGUAUGGUAAUAAGCUGACGGACAUGGUCCUAACCACGCAGCCAAGUCCUAAGUCAACAGAUCUUCUGUUGAUAUGGAUGCAGUUCACAGACUAAAUGUCGGUCGGGGAAGAUGUAUUCUUCUCAUAAGAUAUAGUCGGACCUCUCCUUAAUGGGAGCUAGCGGAUGAAGUGAUGCAACACUGGAGCCGCUGGGAACUAAUUUGUAUGCGAAAGUAUAUUGAUUAGUUUUGGAGUACUCGUGGUCG
In a few lines:
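Colonies from six replicate transformations of E. coli BL21(DE3) were pooled and amplicon-sequenced on an Illumina HiSeq 2500. The library placed an intron with all eight P1ex-region nucleotides randomised inside the knt kanamycin-resistance gene on pET-22b(+), and cells grew overnight at 37°C or 30°C on LB agar with or without 25 μg/mL kanamycin (plus 100 μg/mL carbenicillin, 50 μM IPTG, 0.2% rhamnose). Fitness is the DiMSum error-weighted combination of wild-type-normalised replicate fold changes, kanamycin versus none.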

± gives the uncertainty stated by the source.

In the case of CUCUAGCAAUAUUACGCGGU, the “self-splicing fitness (ln)” value was -3.25 ± 0.26 (30 °C) and -2.59 ± 0.29 (37 °C). Consider AGCUAGCAAUAUUACGGGGC, for which the “self-splicing fitness (ln)” value is, setting by setting: (30 °C) -3.25 ± 0.19; (37 °C) -2.5 ± 0.21. Consider AUGCAGCAAUAUUACGGAUC, for which the “self-splicing fitness (ln)” value is, setting by setting: (30 °C) -2.52 ± 0.15; (37 °C) -2.7 ± 0.14.

CCAUAGCAAUAUUACGGUCG: the “self-splicing fitness (ln)” value (30 °C) was -0.61 ± 0.069 and the “self-splicing fitness (ln)” value (37 °C) was -0.291 ± 0.095. The like results for AAGCAGCAAUAUUACGAGCC were, in that order, -3.37 ± 0.34 and -1.2 ± 0.24. The corresponding values for GAGCAGCAAUAUUACGUUAA are -3.53 ± 0.27 and -0.69 ± 0.13.

As to ACCUAGCAAUAUUACGUGCU, the “self-splicing fitness (ln)” value is, setting by setting: (30 °C) -2.56 ± 0.092; (37 °C) -1.31 ± 0.098. The corresponding values for CGUUAGCAAUAUUACGACGA are -1.36 ± 0.19 and -1.3 ± 0.19.

In the case of UCAUAGCAAUAUUACGAAGG, the “self-splicing fitness (ln)” value is -2.69 ± 0.14 (30 °C) and -1.31 ± 0.11 (37 °C). On to GAAUAGCAAUAUUACGGCCC, for which the “self-splicing fitness (ln)” value (30 °C) is -0.303 ± 0.14 and the “self-splicing fitness (ln)” value (37 °C) was 0.174 ± 0.21. The corresponding values for GGCCAGCAAUAUUACGAGGU are -3.26 ± 0.45 and -2.45 ± 0.32.

With AAGUAGCAAUAUUACGUGGU, the “self-splicing fitness (ln)” value was -3.68 ± 0.18 (30 °C) and -1.93 ± 0.15 (37 °C). CCUAAGCAAUAUUACGGUCA: the “self-splicing fitness (ln)” value was -3.95 ± 0.37 (30 °C) and -3.01 ± 0.2 (37 °C). The corresponding values for GGUGAGCAAUAUUACGAAAA are -2.57 ± 0.32 and -2.66 ± 0.38. Regarding CUUGAGCAAUAUUACGCUGC, the “self-splicing fitness (ln)” value (30 °C) was -2.39 ± 0.49. For ACGUAGCAAUAUUACGCGGC, the “self-splicing fitness (ln)” value is -3.01 ± 0.22 (30 °C) and -2.47 ± 0.42 (37 °C).

As for AGCUAGCAAUAUUACGCUAA, the “self-splicing fitness (ln)” value runs as follows: (30 °C) -1.97 ± 0.18; (37 °C) -1.21 ± 0.12. The corresponding values for ACCCAGCAAUAUUACGGACA are -0.0478 ± 0.08 and -0.181 ± 0.089. As for GGGGAGCAAUAUUACGUUGA, the “self-splicing fitness (ln)” value was -3.11 ± 0.26 (30 °C) and -2.27 ± 0.24 (37 °C). The corresponding values for GCAUAGCAAUAUUACGGUUA are -1.34 ± 0.093 and -0.638 ± 0.084. The corresponding values for GUGAAGCAAUAUUACGUGAC are -2.77 ± 0.23 and -2.18 ± 0.27. As to UAUAAGCAAUAUUACGCAAU, the “self-splicing fitness (ln)” value by setting is: (30 °C) -2.11 ± 0.13; (37 °C) -2.1 ± 0.15. The like results for CGCCAGCAAUAUUACGCAUU were, in that order, -3.11 ± 0.25 and -2.01 ± 0.18. As to AAGGAGCAAUAUUACGAGAA, the “self-splicing fitness (ln)” value is, setting by setting: (30 °C) -3.76 ± 0.42; (37 °C) -2.22 ± 0.24. In the case of UCAUAGCAAUAUUACGCGUC, where the note is “30 °C”, the “self-splicing fitness (ln)” value was -3.76 ± 0.31. UGUGAGCAAUAUUACGUAGU: the “self-splicing fitness (ln)” value by setting is: (30 °C) -2.87 ± 0.24; (37 °C) -3.06 ± 0.35. As for UCCGAGCAAUAUUACGGUGA, the “self-splicing fitness (ln)” value (30 °C) was -0.746 ± 0.076 and the “self-splicing fitness (ln)” value (37 °C) is -0.0617 ± 0.095. GGGGAGCAAUAUUACGCCGA: where the note is “30 °C”, the “self-splicing fitness (ln)” value is -2.05 ± 0.5.

With UUGUAGCAAUAUUACGGGAU, the “self-splicing fitness (ln)” value runs as follows: (30 °C) -4.01 ± 0.29; (37 °C) -2.78 ± 0.26. The like results for CUACAGCAAUAUUACGAUGG were, in that order, -1.44 ± 0.053 and -0.971 ± 0.077. The like results for UAGUAGCAAUAUUACGGCCA were, in that order, -1.22 ± 0.26 and 0.0405 ± 0.27. Consider CCCGAGCAAUAUUACGUGCA, for which the “self-splicing fitness (ln)” value was -3.5 ± 0.2 (30 °C) and -1.52 ± 0.15 (37 °C). The like results for UUAAAGCAAUAUUACGGUUA were, in that order, 0.31 ± 0.069 and -0.0607 ± 0.072.

Consider ACCGAGCAAUAUUACGCAGA, for which the “self-splicing fitness (ln)” value is, setting by setting: (30 °C) -2.2 ± 0.19; (37 °C) -2.51 ± 0.23. The corresponding values for UUGGAGCAAUAUUACGCGUC are -4.81 ± 0.29 and -2.77 ± 0.24. On to AGGGAGCAAUAUUACGCUCA, for which the “self-splicing fitness (ln)” value was -1.16 ± 0.11 (30 °C) and -1.14 ± 0.13 (37 °C). For GGUAAGCAAUAUUACGUGCU, the “self-splicing fitness (ln)” value is, setting by setting: (30 °C) -2.24 ± 0.18; (37 °C) -1.36 ± 0.2. The corresponding values for UGUAAGCAAUAUUACGUUGA are -2.71 ± 0.18 and -1.28 ± 0.16.

As to ACUUAGCAAUAUUACGCAGG, the “self-splicing fitness (ln)” value runs as follows: (30 °C) -2.19 ± 0.13; (37 °C) -1.79 ± 0.15. On to CCCUAGCAAUAUUACGUAGG, for which the “self-splicing fitness (ln)” value was -2.61 ± 0.15 (30 °C) and -2.15 ± 0.29 (37 °C).

CGCGAGCAAUAUUACGGGAA: the “self-splicing fitness (ln)” value is, setting by setting: (30 °C) -3.74 ± 0.27; (37 °C) -2.4 ± 0.29.

As for ACUGAGCAAUAUUACGGCAA, the “self-splicing fitness (ln)” value is -2.13 ± 0.14 (30 °C) and -2.33 ± 0.21 (37 °C).

For AGAUAGCAAUAUUACGCAAC, the “self-splicing fitness (ln)” value was -2.05 ± 0.34 (30 °C) and -1.39 ± 0.24 (37 °C). With GCACAGCAAUAUUACGCAGU, the “self-splicing fitness (ln)” value by setting is: (30 °C) -1.65 ± 0.12; (37 °C) -1.32 ± 0.13.

For the sequence AAGCAGCAAUAUUACGUUGC, the “self-splicing fitness (ln)” value runs as follows: (30 °C) -2.46 ± 0.099; (37 °C) -3.24 ± 0.21. The like results for UUCCAGCAAUAUUACGGUUC were, in that order, -2.81 ± 0.16 and -1.99 ± 0.24. On to AUUUAGCAAUAUUACGGUAA, for which the “self-splicing fitness (ln)” value runs as follows: (30 °C) -1.59 ± 0.17; (37 °C) -1.54 ± 0.17. Take CAUUAGCAAUAUUACGAUGC: under “37 °C”, the “self-splicing fitness (ln)” value is -3.61 ± 0.42. As for GAAAAGCAAUAUUACGGGUC, the “self-splicing fitness (ln)” value runs as follows: (30 °C) -2.09 ± 0.14; (37 °C) -2.58 ± 0.22. The corresponding values for CCACAGCAAUAUUACGCGGG are -3.14 ± 0.12 and -2.77 ± 0.16. Take AGUUAGCAAUAUUACGCUUA: the “self-splicing fitness (ln)” value reads like this: (30 °C) -1.3 ± 0.15; (37 °C) -0.343 ± 0.16. As to AGAGAGCAAUAUUACGUCGG, the “self-splicing fitness (ln)” value was -2.92 ± 0.25 (30 °C) and -2.2 ± 0.26 (37 °C).

Take ACGAAGCAAUAUUACGCACC: the “self-splicing fitness (ln)” value is -0.755 ± 0.16 (30 °C) and -0.0218 ± 0.22 (37 °C).

As to GGGGAGCAAUAUUACGAAAU, the “self-splicing fitness (ln)” value by setting is: (30 °C) -3.38 ± 0.47; (37 °C) -2.37 ± 0.39. The corresponding values for UAUAAGCAAUAUUACGUCGA are -1.56 ± 0.14 and -0.891 ± 0.16. The like results for GUUAAGCAAUAUUACGACUA were, in that order, -0.731 ± 0.13 and -0.438 ± 0.11. The like results for ACUUAGCAAUAUUACGGCAA were, in that order, -0.92 ± 0.16 and -1.31 ± 0.23. Regarding AGUUAGCAAUAUUACGGUGG, the “self-splicing fitness (ln)” value (30 °C) was -1.16 ± 0.18 and the “self-splicing fitness (ln)” value (37 °C) was -2.42 ± 0.27. The like results for GGGUAGCAAUAUUACGCGUA were, in that order, -0.49 ± 0.1 and -0.35 ± 0.11. The like results for AUACAGCAAUAUUACGCAUG were, in that order, -1.44 ± 0.094 and -0.421 ± 0.12. The like results for UUCUAGCAAUAUUACGUGAA were, in that order, -0.339 ± 0.066 and -0.148 ± 0.082. For the sequence UAGUAGCAAUAUUACGGAAA, where the note is “37 °C”, the “self-splicing fitness (ln)” value was -1.49 ± 0.3.

On to GAGUAGCAAUAUUACGGACA, for which the “self-splicing fitness (ln)” value reads like this: (30 °C) -1.44 ± 0.087; (37 °C) -0.816 ± 0.082. The like results for GAGCAGCAAUAUUACGUACA were, in that order, -1.06 ± 0.22 and -0.116 ± 0.17. The like results for CGAGAGCAAUAUUACGUUCU were, in that order, -3.16 ± 0.13 and -2.83 ± 0.17. As to GACCAGCAAUAUUACGAAAU, the “self-splicing fitness (ln)” value runs as follows: (30 °C) -1.34 ± 0.093; (37 °C) -0.476 ± 0.098. The corresponding values for GUCAAGCAAUAUUACGGGUC are -3.45 ± 0.19 and -2.16 ± 0.18. The corresponding values for UAACAGCAAUAUUACGGCAA are -0.777 ± 0.089 and 0.203 ± 0.096.

Consider GAUCAGCAAUAUUACGUUUG, for which the “self-splicing fitness (ln)” value is, setting by setting: (30 °C) -1.53 ± 0.058; (37 °C) 0.151 ± 0.08. The corresponding values for CGGAAGCAAUAUUACGUUCU are -1.91 ± 0.14 and -0.77 ± 0.14.

As to AGCCAGCAAUAUUACGGGCA, the “self-splicing fitness (ln)” value (30 °C) was -1.78 ± 0.14 and the “self-splicing fitness (ln)” value (37 °C) was -0.459 ± 0.13. The like results for CCUUAGCAAUAUUACGGGCG were, in that order, -1.64 ± 0.083 and -0.95 ± 0.093. The like results for GUUGAGCAAUAUUACGUCUA were, in that order, -2.72 ± 0.46 and -0.927 ± 0.24. As to UAAUAGCAAUAUUACGCAUG, the “self-splicing fitness (ln)” value is -1.4 ± 0.085 (30 °C) and 0.553 ± 0.13 (37 °C). In the case of AACAAGCAAUAUUACGUGCC, the “self-splicing fitness (ln)” value reads like this: (30 °C) -0.971 ± 0.086; (37 °C) -0.503 ± 0.12. The corresponding values for UAGAAGCAAUAUUACGGACU are -1.29 ± 0.13 and 0.474 ± 0.11.
